The nature of the data set: collision cross section of modified peptide (TIMS, N2, iRT-aligned); higher = larger / more extended gas-phase ion. Summed up: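 Synthetic peptide pools (~100 fmol/µL in 2% acetonitrile/0.1% formic acid, iRT standard spiked 1:40) were separated on a 120-min nanoflow C18 gradient at 60 °C. They were analysed on a timsTOF Pro/HT (dda-PASEF, nitrogen, ~2.4 mbar) and identified with MaxQuant. 1/K0 was calibrated with three reference ions and aligned run-wise to the median iRT peptide deviation. Collision cross section came from the Mason-Schamp equation, averaging 1–3 technical replicates of the most abundant feature per charge state.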

Where [1] appears, read: charge state: 2, modification: Acetyl (K).
The mark [2] stands for this setting: charge state: 3, modification: Acetyl (K).
[3] abbreviates: charge state: 2, modification: Biotin.
Where [4] appears, read: charge state: 2, modification: Butyryl.
Where [5] appears, read: charge state: 2, modification: Crotonyl.
Setting [6] is: charge state: 2, modification: Dimethyl (K).
The mark [7] stands for this setting: charge state: 3, modification: Dimethyl (K).
Where [8] appears, read: charge state: 2, modification: Formyl.
Where [9] appears, read: charge state: 2, modification: Glutarylation.
[10] abbreviates: charge state: 2, modification: GlyGly (K).
The mark [11] stands for this setting: charge state: 3, modification: GlyGly (K).
Setting [12] is: charge state: 2, modification: Malonyl.
[13] abbreviates: charge state: 2, modification: Methyl (K).
Setting [14] is: charge state: 3, modification: Methyl (K).
Setting [15] is: charge state: 2, modification: Propionyl.
The mark [16] stands for this setting: charge state: 2, modification: Succinyl.
Where [17] appears, read: charge state: 2, modification: Trimethyl (K).
[18] abbreviates: charge state: 3, modification: Trimethyl (K).
Setting [19] is: charge state: 2, modification: hydroxyisobutyryl.
Where [20] appears, read: charge state: 2, modification: HexNAc (ST).
Where [21] appears, read: charge state: 3, modification: HexNAc (ST).
[22] abbreviates: charge state: 3, modification: Succinyl.

± gives the standard deviation.

Results on 62 sequences are retold here after the supplement of paper PMC10598134.

ISALQGKLSK [_ISALQGK(Acetyl (K))LSK_]: the collision cross section is, setting by setting: under setting [1], 353.22 ± 0.93 Å²; under setting [2], 432.36 Å².
Turning to ISALQGKLSK [_ISALQGK(Biotin)LSK_], the collision cross section under setting [3] came to 376.95 ± 2.2 Å².
Consider ISALQGKLSK [_ISALQGK(Butyryl)LSK_], for which, under setting [4], the collision cross section is 358.56 ± 1.2 Å².
With ISALQGKLSK [_ISALQGK(Crotonyl)LSK_], under setting [5], the collision cross section amounted to 358.67 ± 0.88 Å².
As to ISALQGKLSK [_ISALQGK(Dimethyl (K))LSK_], the collision cross section is on record as 355.29 ± 0.29 Å² under setting [6] and 425.26 ± 1.1 Å² under setting [7].
ISALQGKLSK [_ISALQGK(Formyl)LSK_]: the collision cross section under setting [8] was 348.45 ± 1 Å².
Under setting [9], “ISALQGKLSK [_ISALQGK(Gluratylation)LSK_]” came in with a collision cross section of 358.52 ± 0.083 Å².
For the sequence ISALQGKLSK [_ISALQGK(GlyGly (K))LSK_], the collision cross section by setting is: under setting [10], 369.61 ± 1 Å²; under setting [11], 430.51 ± 2 Å².
Take ISALQGKLSK [_ISALQGK(Malonyl)LSK_]: the collision cross section under setting [12] came to 349.78 ± 0.6 Å².
For ISALQGKLSK [_ISALQGK(Methyl (K))LSK_], the collision cross section runs as follows: under setting [13], 354.46 ± 1.1 Å²; under setting [14], 434.86 ± 2.4 Å².
Turning to ISALQGKLSK [_ISALQGK(Propionyl)LSK_], under setting [15], the collision cross section is given as 357.21 ± 0.33 Å².
Under setting [16], ISALQGKLSK [_ISALQGK(Succinyl)LSK_] displayed a collision cross section of 354.02 ± 1.3 Å².
“ISALQGKLSK [_ISALQGK(Trimethyl (K))LSK_]”: the collision cross section runs as follows: under setting [17], 359.1 ± 0.6 Å²; under setting [18], 419.39 ± 1.8 Å².
Sequence “ISALQGKLSK [_ISALQGK(hydroxyisobutyryl)LSK_]” showed a collision cross section under setting [19] of 359.85 ± 0.79 Å².
“ISEILLDHGAPIQAK [_IS(HexNAc (ST))EILLDHGAPIQAK_]”: the collision cross section runs as follows: under setting [20], 457.74 ± 0.56 Å²; under setting [21], 559.32 ± 1.1 Å².
Consider “ISPVEESEDVSNK [_ISPVEES(HexNAc (ST))EDVSNK_]”, for which the collision cross section under setting [20] is 415.06 ± 0.62 Å².
Sequence “ISSNFSSIIAEKLR [_ISSNFSSIIAEK(Acetyl (K))LR_]” yielded a collision cross section under setting [1] of 428.83 ± 3 Å² and a collision cross section under setting [2] of 506.75 Å².
Under setting [4], “ISSNFSSIIAEKLR [_ISSNFSSIIAEK(Butyryl)LR_]” gave a collision cross section of 436.86 ± 0.55 Å².
Turning to “ISSNFSSIIAEKLR [_ISSNFSSIIAEK(Crotonyl)LR_]”, the collision cross section under setting [5] was 435.72 Å².
“ISSNFSSIIAEKLR [_ISSNFSSIIAEK(Dimethyl (K))LR_]”: the collision cross section was found to be 442.58 ± 1.2 Å² under setting [6] and 495.15 ± 0.74 Å² under setting [7].
In turn, “ISSNFSSIIAEKLR [_ISSNFSSIIAEK(Gluratylation)LR_]” had a collision cross section under setting [9] of 430.8 ± 0.96 Å².
Consider “ISSNFSSIIAEKLR [_ISSNFSSIIAEK(GlyGly (K))LR_]”, for which the collision cross section by setting is: under setting [10], 443.53 ± 6.7 Å²; under setting [11], 502.71 ± 1.1 Å².
As to “ISSNFSSIIAEKLR [_ISSNFSSIIAEK(Methyl (K))LR_]”, the collision cross section is, setting by setting: under setting [13], 438.59 ± 1.7 Å²; under setting [14], 507.3 ± 3.6 Å².
Regarding “ISSNFSSIIAEKLR [_ISSNFSSIIAEK(Succinyl)LR_]”, the collision cross section reads like this: under setting [16], 432.83 ± 0.84 Å²; under setting [22], 512.74 Å².
Regarding “ISSNFSSIIAEKLR [_ISSNFSSIIAEK(Trimethyl (K))LR_]”, the collision cross section under setting [18] is 499.26 ± 8.7 Å².
In the case of “ISSNFSSIIAEKLR [_ISSNFSSIIAEK(hydroxyisobutyryl)LR_]”, under setting [19], the collision cross section stood at 431.4 ± 1.4 Å².
On to ITASLCDLKSR [_ITASLCDLK(Acetyl (K))SR_], for which, under setting [1], the collision cross section was determined as 383.24 ± 1.3 Å².
In turn, ITASLCDLKSR [_ITASLCDLK(Biotin)SR_] came in with a collision cross section under setting [3] of 401.02 Å².
ITASLCDLKSR [_ITASLCDLK(Butyryl)SR_] showed a collision cross section under setting [4] of 390.25 Å².
With ITASLCDLKSR [_ITASLCDLK(Formyl)SR_], the collision cross section under setting [8] came to 378.38 Å².
On to “ITASLCDLKSR [_ITASLCDLK(Gluratylation)SR_]”, for which, under setting [9], the collision cross section came out at 391.61 ± 1.4 Å².
For ITASLCDLKSR [_ITASLCDLK(GlyGly (K))SR_], the collision cross section is, setting by setting: under setting [10], 398.64 ± 0.87 Å²; under setting [11], 457.36 ± 1.1 Å².
Turning to ITASLCDLKSR [_ITASLCDLK(Malonyl)SR_], the collision cross section under setting [12] stood at 382.56 Å².
Consider ITASLCDLKSR [_ITASLCDLK(Methyl (K))SR_], for which the collision cross section is 398.61 Å² under setting [13] and 456.95 ± 2.7 Å² under setting [14].
ITASLCDLKSR [_ITASLCDLK(Succinyl)SR_] gave a collision cross section under setting [16] of 384.23 ± 0.76 Å².
In turn, “ITASLCDLKSR [_ITASLCDLK(hydroxyisobutyryl)SR_]” showed a collision cross section under setting [19] of 395.08 ± 0.81 Å².
Under setting [20], “ITESVAETAQTIK [_ITESVAET(HexNAc (ST))AQTIK_]” returned a collision cross section of 422.03 ± 0.75 Å².
Take “ITESVAETAQTIKK [_ITESVAET(HexNAc (ST))AQTIKK_]”: the collision cross section by setting is: under setting [20], 456.71 ± 0.56 Å²; under setting [21], 499.78 ± 0.18 Å².
With “ITESVAETAQTIKK [_ITESVAETAQTIK(Acetyl (K))K_]”, the collision cross section by setting is: under setting [1], 418.11 ± 1.3 Å²; under setting [2], 510.01 ± 1.7 Å².
For “ITESVAETAQTIKK [_ITESVAETAQTIK(Biotin)K_]”, under setting [3], the collision cross section was found to be 443.04 ± 1.4 Å².
“ITESVAETAQTIKK [_ITESVAETAQTIK(Butyryl)K_]” returned a collision cross section under setting [4] of 425.5 ± 0.24 Å² and a collision cross section (charge state: 3, modification: Butyryl) of 518.39 ± 2.7 Å².
On to “ITESVAETAQTIKK [_ITESVAETAQTIK(Crotonyl)K_]”, for which the collision cross section by setting is: under setting [5], 424.18 ± 0.81 Å²; (charge state: 3, modification: Crotonyl) 514.18 ± 1.1 Å².
With “ITESVAETAQTIKK [_ITESVAETAQTIK(Dimethyl (K))K_]”, the collision cross section by setting is: under setting [6], 449.13 ± 1.2 Å²; under setting [7], 499.12 ± 1.6 Å².
Take “ITESVAETAQTIKK [_ITESVAETAQTIK(Formyl)K_]”: the collision cross section runs as follows: under setting [8], 415.52 ± 0.56 Å²; (charge state: 3, modification: Formyl) 507.5 ± 1.5 Å².
In turn, “ITESVAETAQTIKK [_ITESVAETAQTIK(Gluratylation)K_]” gave a collision cross section under setting [9] of 429.83 ± 0.97 Å² and a collision cross section (charge state: 3, modification: Glutarylation) of 514.64 ± 1.7 Å².
On to “ITESVAETAQTIKK [_ITESVAETAQTIK(GlyGly (K))K_]”, for which the collision cross section under setting [10] came out at 453.63 ± 0.95 Å² and the collision cross section under setting [11] came to 514.8 ± 1.1 Å².
Take “ITESVAETAQTIKK [_ITESVAETAQTIK(Malonyl)K_]”: the collision cross section stood at 420.49 ± 0.57 Å² under setting [12] and 509.94 ± 1.1 Å² (charge state: 3, modification: Malonyl).
Regarding “ITESVAETAQTIKK [_ITESVAETAQTIK(Methyl (K))K_]”, the collision cross section by setting is: under setting [13], 444.7 ± 2.5 Å²; under setting [14], 507.98 ± 2.8 Å².
“ITESVAETAQTIKK [_ITESVAETAQTIK(Propionyl)K_]”: the collision cross section is given as 421.06 ± 1.1 Å² under setting [15] and 515.07 Å² (charge state: 3, modification: Propionyl).
As for “ITESVAETAQTIKK [_ITESVAETAQTIK(Succinyl)K_]”, the collision cross section is on record as 424.69 ± 1.1 Å² under setting [16] and 512.63 ± 2.6 Å² under setting [22].
For the sequence “ITESVAETAQTIKK [_ITESVAETAQTIK(Trimethyl (K))K_]”, the collision cross section is 451.09 ± 1 Å² under setting [17] and 496.11 ± 2.8 Å² under setting [18].
Take “ITESVAETAQTIKK [_ITESVAETAQTIK(hydroxyisobutyryl)K_]”: the collision cross section runs as follows: under setting [19], 425.76 ± 3.1 Å²; (charge state: 3, modification: hydroxyisobutyryl) 520.92 ± 2 Å².
ITGKNQVTATK [_ITGK(Acetyl (K))NQVTATK_] yielded a collision cross section under setting [1] of 365.02 ± 0.94 Å².
In the case of ITGKNQVTATK [_ITGK(Biotin)NQVTATK_], the collision cross section under setting [3] is listed as 389.13 ± 1.7 Å².
ITGKNQVTATK [_ITGK(Butyryl)NQVTATK_]: the collision cross section under setting [4] stood at 370.52 ± 0.71 Å².
ITGKNQVTATK [_ITGK(Crotonyl)NQVTATK_]: under setting [5], the collision cross section is recorded as 369.54 ± 0.26 Å².
“ITGKNQVTATK [_ITGK(Dimethyl (K))NQVTATK_]”: the collision cross section runs as follows: under setting [6], 369.07 ± 1.1 Å²; under setting [7], 427.9 Å².
In the case of ITGKNQVTATK [_ITGK(Formyl)NQVTATK_], the collision cross section under setting [8] is listed as 360.79 ± 0.79 Å².
As for “ITGKNQVTATK [_ITGK(Gluratylation)NQVTATK_]”, the collision cross section under setting [9] was 369.78 ± 0.66 Å².
ITGKNQVTATK [_ITGK(GlyGly (K))NQVTATK_] gave a collision cross section under setting [10] of 373.22 ± 0.38 Å² and a collision cross section under setting [11] of 442.8 ± 1.1 Å².
On to ITGKNQVTATK [_ITGK(Malonyl)NQVTATK_], for which, under setting [12], the collision cross section is 362.15 ± 0.018 Å².
With ITGKNQVTATK [_ITGK(Methyl (K))NQVTATK_], the collision cross section reads like this: under setting [13], 372.71 ± 1.1 Å²; under setting [14], 447.83 ± 5.1 Å².
